# Test results as given in patent publication US20030129193A1 (priority 2001, published 2003).
# How the values were obtained:
# [1] = test system: Mouse bEnd.3 endothelial cells; experiment: PS induction by H2O2; assay type: cell-based
# Method: Mouse bEnd.3 endothelial cells were seeded at an initial density of 50,000 cells/well. Twenty-fours later cells were incubated with increasing concentrations of H2O2 (from 10 μM to 500 μM) for 1 hour at 37° C. or left untreated. At the end of the incubation, cells were washed 3 times with PBS containing 0.2% gelatin and fixed with 0.25% glutaraldehyde. Identical wells were either stained with anti-PS IgM or trypsinized and evaluated for viability by the Trypan Blue exclusion test. For the anti-PS staining, after blocking with 2% gelatin for 10 min., cells were incubated with 2 μg/ml of anti-PS antibody, followed by detection with anti-mouse IgM-HRP conjugate.
# [2] = target: recombinant, depyrogenated truncated Tissue Factor (amino acids 1-219), secreted into the periplasm of E. coli from vector pswc7 (human) (UniProt P13726); experiment: cell-based or functional assay
# [3] = test system: tissue factor on HUVEC cells; experiment: FACS analysis of tissue factor expression; assay type: cell-based, human; details: 6 h at 37°; TNFα 500 U/ml, LPS 10 μg/ml, VEGF 1 nM
# Method: To analyze tissue factor expression on the surface of endothelial cells, HUVEC cells were incubated with TNFα (500 U/ml), LPS (10 μg/ml) or vascular endothelial growth factor (VEGF, 1 nM) alone or in combination for 6 h at 37°. Cells were then detached and stained for surface expression of human tissue factor with a sheep-anti-human tissue factor antibody (Haemochrom, Essen, Germany) and an appropriate FITC-conjugated secondary antibody. Fluorescent cells were detected on a flow cytometer (Becton Dickinson. San Jose, Calif.).
# [4] = test system: HT29 human colorectal carcinoma; experiment: Anti-tumor effects and tumor necrosis, HT29; assay type: in vivo, BALB/c nu/nu mice; details: small HT29 tumors, single agents, 24 hours
# [5] = test system: citrated mouse or human plasma; experiment: In vitro coagulation assay on A20 cells; assay type: cell-based; details: for concentration at which plasma coagulated in 50 seconds: localized on A20 cells via B21-2/10H10; for reduction of coagulation-inducing activity relative to monomer / tTF219: less active; for coagulation times versus tTF219 and Factor VIIa at the same concentrations: Factor VIIa at 1 nM or greater
# [6] = test system: factor X; experiment: Factor Xa production assay on A20 cells; assay type: cell-based; details: Factors II, VII and IX present
molecule,measurement,setting,value
OO [H2O2],cells with PS at the cell surface,[1]; concentrations as low as 20 μM,about 50%
same,cells with PS translocation,"[1]; concentrations higher than 100 μM, 1 hour",~90%
same,cell viability,[1]; low levels of H2O2 (lower than 100 μM),95%
Factor VIIa (Sigma) (enzyme),Factor Xa generation due to Factor VIIa production on bEnd3 cells; stimulation: 0.5 µg/ml LPS; incubation: tTF-VIIa,[2],6.25 nkat S2222
same,Factor Xa generation due to Factor VIIa production on bEnd3 cells; stimulation: 0.5 µg/ml LPS; tTF-VIIa minus sTF,[2],3.25 nkat S2222
same,Factor Xa generation due to Factor VIIa production on bEnd3 cells; stimulation: TNFα; incubation: tTF-VIIa,[2],2.93 nkat S2222
same,Factor Xa generation due to Factor VIIa production on bEnd3 cells; stimulation: TNFα; tTF-VIIa minus sTF,[2],1.02 nkat S2222
same,Factor Xa generation due to Factor VIIa production on bEnd3 cells; stimulation: medium; incubation: tTF-VIIa,[2],0.95 nkat S2222
same,Factor Xa generation due to Factor VIIa production on bEnd3 cells; stimulation: medium; tTF-VIIa minus sTF,[2],0.25 nkat S2222
same,Factor Xa generation on bEnd3 cells; stimulation: 0.5 µg/ml LPS; incubation: tTF-VIIa,[2],3.35 nkat S2222
same,Factor Xa generation on bEnd3 cells; stimulation: 0.5 µg/ml LPS; tTF-VIIa minus sTF (background subtracted),[2],1.35 nkat S2222
same,Factor Xa generation on bEnd3 cells; stimulation: 10 µg/ml LPS; incubation: tTF-VIIa,[2],4.46 nkat S2222
same,Factor Xa generation on bEnd3 cells; stimulation: 10 µg/ml LPS; tTF-VIIa minus sTF (background subtracted),[2],1.55 nkat S2222
same,Factor Xa generation on bEnd3 cells; stimulation: TNFα; incubation: tTF-VIIa,[2],1.51 nkat S2222
same,Factor Xa generation on bEnd3 cells; stimulation: TNFα; tTF-VIIa minus sTF (background subtracted),[2],0.84 nkat S2222
same,Factor Xa generation on bEnd3 cells; stimulation: medium; incubation: tTF-VIIa,[2],0.56 nkat S2222
same,Factor Xa generation on bEnd3 cells; stimulation: medium; tTF-VIIa minus sTF (background subtracted),[2],0.16 nkat S2222
VEGF,tissue factor expression on the surface of HUVEC,[3],upregulated tissue factor expression
Factor VIIa: recombinant human Factor VIIa (protein) light: ANAFLEELRPGSLERECKEEQCSFEEAREIFKDAERTKLFWISYSDGDQCASSPCQNGGSCKDQLQSYICFCLPAFEGRNCETHKDDQLICVNENGGCEQYCSDHTGTKRSCRCHEGYSLLADGVSCTPTVEYPCGKIPILEKRNASKPQGR heavy: IVGGKVCPKGECPWQVLLLVNGAQLCGGTLINTIWVVSAAHCFDKIKNWRNLIAVLGEHDLSEHDGDEQSRRVAQVIIPSTYVPGTTNHDIALLRLHQPVVLTDHVVPLCLPERTFSERTLAFVRFSLVSGWGQLLDRGATALELMVLNVPRLMTQDCLQQSRKVGDSPNITEYMFCAGYSDGSKDSCKGDSGGPHATHYRGTWYLTGIVSWGQGCATVGHFGVYTRVSQYIEWLQKLMRSEPRPGVLLRAPFP,necrosis in tumor sections,[4],some necrosis
"tTF221-cys-C′: tTF with Ile-Phe-Cys after amino acid 219, without (His)6 tag (protein) GSGTTNTVAAYNLTWKSTNFKTILEWEPKPVNQVYTVQISTKSGDWKSKCFYTTDTECDLTDEIVKDVKQTYLARVFSYPAGNVESTGSAGEPLYENSPEFTPYLETNLGQPTIQSFEQVGTKVNVTVEDERTLVRRNNTFLSLRDVFGKDLIYTLYYWKSSSSGKKTAKTNTNEFLIDVDKGENYCFSVQAVIPSRTVNRKSTDSPVECMGQEKGEFREIFC",concentration at which plasma coagulated in 50 seconds,[5],500 pM
"H6-tTF220-cys-C′: tTF219 mutated to encode Ile-Cys after amino acid 219, (His)6 tag (protein) HHHHHHAMALVPRGSGTTNTVAAYNLTWKSTNFKTILEWEPKPVNQVYTVQISTKSGDWKSKCFYTTDTECDLTDEIVKDVKQTYLARVFSYPAGNVESTGSAGEPLYENSPEFTPYLETNLGQPTIQSFEQVGTKVNVTVEDERTLVRRNNTFLSLRDVFGKDLIYTLYYWKSSSSGKKTAKTNTNEFLIDVDKGENYCFSVQAVIPSRTVNRKSTDSPVECMGQEKGEFRE",concentration at which plasma coagulated in 50 seconds,[5],500 pM
H6-tTF221-cys-C′ dimer: chemically conjugated disulfide dimer of H6-tTF221-cys-C′ (protein) HHHHHHAMALVPRGSGTTNTVAAYNLTWKSTNFKTILEWEPKPVNQVYTVQISTKSGDWKSKCFYTTDTECDLTDEIVKDVKQTYLARVFSYPAGNVESTGSAGEPLYENSPEFTPYLETNLGQPTIQSFEQVGTKVNVTVEDERTLVRRNNTFLSLRDVFGKDLIYTLYYWKSSSSGKKTAKTNTNEFLIDVDKGENYCFSVQAVIPSRTVNRKSTDSPVECMGQEKGEFRE,reduction of coagulation-inducing activity relative to monomer / tTF219,[5],4 fold
H6-tTF219-cys-C′: (His)6 tTF219 with a Cys after amino acid 219 (protein) HHHHHHAMALVPRGSGTTNTVAAYNLTWKSTNFKTILEWEPKPVNQVYTVQISTKSGDWKSKCFYTTDTECDLTDEIVKVKQTYLARVFSYPAGNVESTGSAGEPLYENSPEFTPYLETNLGQPTIQSFEQVGTKVNVTVEDRTLVRRNNTFLSLRDVFGKDLIYTLYYWKSSSSGKKTAKTNTNEFLIDVDKGENYCFSVQAVIPSRTVNRKSTDSPVECMGQEKGEFREC,concentration at which plasma coagulated in 50 seconds,[5],3000 pM
"tTF220-cys-C′: tTF with Ile-Cys after amino acid 219, without (His)6 tag (protein) GSGTTNTVAAYNLTWKSTNFKTILEWEPKPVNQVYTVQISTKSGDWKSKCFYTTDTECDLTDEIVKDVKQTYLARVFSYPAGNVESTGSAGEPLYENSPEFTPYLETNLGQPTIQSFEQVGTKVNVTVEDERTLVRRNNTFLSLRDVFGKDLIYTLYYWKSSSSGKKTAKTNTNEFLIDVDKGENYCFSVQAVIPSRTVNRKSTDSPVECMGQEKGEFREIC",concentration at which plasma coagulated in 50 seconds,[5],500 pM
tTF219 (G164A): tTF219 with amino acid 164 (Gly) replaced by Ala (protein) GSGTTNTVAAYNLTWKSTNFKTILEWEPKPVNQVYTVQISTKSGDWKSKCFYTTDTECDLTDEIVKDVKQTYLARVFSYPAGNVESTGSAGEPLYENSPEFTPYLETNLGQPTIQSFEQVGTKVNVTVEDERTLVRRNNTFLSLRDVFGKDLIYTLYYWKSSSSAKKTAKTNTNEFLIDVDKGENYCFSVQAVIPSRTVNRKSTDSPVECMGQEKGEFRE,necrosis in tumor sections,[4],some necrosis
same,coagulation times versus tTF219 and Factor VIIa at the same concentrations,[5],only marginally slower coagulation times
tTF219 (W158R) (protein) GSGTTNTVAAYNLTWKSTNFKTILEWEPKPVNQVYTVQISTKSGDWKSKCFYTTDTECDLTDEIVKDVKQTYLARVFSYPAGNVESTGSAGEPLYENSPEFTPYLETNLGQPTIQSFEQVGTKVNVTVEDERTLVRRNNTFLSLRDVFGKDLIYTLYYRKSSSSGKKTAKTNTNEFLIDVDKGENYCFSVQAVIPSRTVNRKSTDSPVECMGQEKGEFRE,coagulation times versus tTF219 and Factor VIIa at the same concentrations,[5],only marginally slower coagulation times
"IgG-H6—N′-cys-tTF219: one molecule of IgG linked via SMPT to one or two molecules of tTF (conjugate, left off: large carriers) HHHHHHAMALVPRGSCGTTNTVAAYNLTWKSTNFKTILEWEPKPVNQVYTVQISTKSGDWKSKCFYTTDTECDLTDEIVKDVKQTYLARVFSYPAGNVESTGSAGEPLYENSPEFTPYLETNLGQPTIQSFEQVGTKVNVTVEDERTLVRRNNTFLSLRDVFGKDLIYTLYYWKSSSSGKKTAKTNTNEFLIDVDKGENYCFSVQAVIPSRTVNRKSTDSPVECMGQEKGEFRE",reduction of coagulation-inducing activity relative to monomer / tTF219,[5],5 fold
same,concentration at which plasma coagulated in 50 seconds,[5],5000 pM
same,"Xa formation, less active than H6—N′-cys-tTF219",[6],2 fold
"Fab′-H6—N′-cys-tTF219: Fab′-SS-tTF conjugate (conjugate, left off: another chain or arm of the molecule; large carriers) HHHHHHAMALVPRGSCGTTNTVAAYNLTWKSTNFKTILEWEPKPVNQVYTVQISTKSGDWKSKCFYTTDTECDLTDEIVKDVKQTYLARVFSYPAGNVESTGSAGEPLYENSPEFTPYLETNLGQPTIQSFEQVGTKVNVTVEDERTLVRRNNTFLSLRDVFGKDLIYTLYYWKSSSSGKKTAKTNTNEFLIDVDKGENYCFSVQAVIPSRTVNRKSTDSPVECMGQEKGEFRE",Xa formation relative to H6—N′-cys-tTF219,[6],as active as H6—N′-cys-tTF219 itself
